Assay results taken from patent US20220228157A1, “GENE EDITING IN DIVERSE BACTERIA” (priority 2019, published 2022).

Columns and labels:
[1] = target: PaSSB (Pseudomonas aeruginosa single-stranded binding protein) (Pseudomonas aeruginosa) (UniProt P40947); assay: cell-based or functional assay; conditions: scale: fold improved over the RecT protein alone
[2] = target: L. lactis single-stranded binding protein (LlSSB) (L. lactis) (UniProt Q9CDM9); assay: cell-based or functional assay
E. coli [3] = assay: Fifteen cycles of MAGE with pool of 15 oligos, editing efficiency by NGS; format: cell-based, Escherichia coli; conditions: 15 separate mutations, one week
Method: E. coli populations expressing either an efficient SSAP (SEQ ID NO: 157), an efficient SSAP/SSB pair (SEQ ID NO: 157/SEQ ID NO: 384), or the widely-used Redβ were taken through fifteen cycles of MAGE and transformed each cycle with a 10 μM pool comprising 15 unique oligos. Editing efficiency at each targeted locus was measured by NGS and averaged (FIG. 3).

[4] = tested on: Agrobacterium tumefaciens; assay: SSAP candidate enrichment; format: cell-based
Method: The editing efficiency of SSAP candidates was also tested in Agrobacterium tumefaciens and in Staphylococcus aureus using the methods described above.

E. coli [5] = assay: Allelic recombination frequency, selective vs non-selective plates; format: cell-based, Escherichia coli; conditions: RecT alone
Method: (§1) Four variants known to enable high genome editing efficiency were selected (Redβ and PapRecT in E. coli, LrpRecT in L. lactis, and MspRecT in M. smegmatis), and tested codon optimized versions of all four in both E. coli (gram-negative), and L. lactis (gram-positive). Genome editing efficiency was measured by introducing oligos encoding known antibiotic resistance mutations, and compared the antibiotic resistant cell counts to the total number of viable cells in the population (FIGS. 17E-17F). […] In L. lactis, LrpRecT was the only functional homolog, and improved oligo incorporation 7,700-fold, while the three other RecT variants were nearly non-functional, improving oligo incorporation less than 7-fold (FIG. 17H). No RecT protein functioned well both in E. coli and L. lactis.
A single colony of E. coli was grown overnight to saturation. In the morning 30 μL of dense culture was inoculated into 3 mL of fresh media and grown for 1 hour. To induce gene expression of the pARC8 vector for recombineering experiments, L-arabinose was added to a final concentration of 0.2% (w/v) and the cells were grown an additional hour. 1 mL of cells were pelleted at 4° C. by centrifugation at 12,000×g for 2.5 minutes and washed twice with 1 mL of ice-cold dH2O. Cells were resuspended in 50 μL ice-cold dH2O containing DNA and transferred to a pre-chilled 0.1 cm electroporation cuvette.
(§2) Electrocompetent cells were electroporated with 90-mer oligos at: 1 uM for E. coli, 50 μg for L. lactis, and 10 uM for C. crescentus. 70-mer oligos were used at 1 μg for M. smegmatis. All oligos were obtained from IDT and can be found under “Oligonucleotides for genome editing” in materials and methods. For dsDNA experiments L. lactis was electroporated with 1.5 μg purified linear dsDNA. Cells were electroporated using a Bio-Rad gene pulser set to 25 μF, 200 S2, and 1.8 kV for E. coli, 2.0 kV for L. lactis, and 1.5 kV for C. crescentus and to 1000Ω and 2.5 kV for M. smegmatis. Immediately after electroporation, cells were recovered in fresh media for 3 hours for E. coli, 1 hour for L. lactis, overnight for M. smegmatis and overnight for C. crescentus. L. lactis recovery media was supplemented with MgCl2 and CaCl2) at a concentration of 20 mM and 2 mM, respectively. E. coli recovery media was supplemented with carbenicillin. M. smegmatis recovery media was supplemented with hygromycin. C. crescentus recovery media was supplemented with 0.3% xylose and kanamycin. After recovery, the cells were serial diluted and plated on non-selective vs. selective agar plates to obtain approximately 50-500 CFU/plate. Colonies were counted using a custom script in Fiji, and allelic recombination frequency was calculated by dividing the number of colonies on selective plates, with the number of colonies on non-selective plates.

L. rhamnosus = format: cell-based; conditions: L. rhamnosus
Method: Finally, the model for RecT was used to establish recombineering in L. rhamnosus, a well-studied probiotic used to treat a variety of illnesses including diarrhea and bacterial vaginosis. Although the L. rhamnosus SSB and L. lactis SSB only have 47% identity, they share identical SSB C-terminal tail 7 amino acids. It was determined whether LrpRecT (which functions in L. lactis) is portable to L. rhamnosus, while the other RecT proteins would not be functional.

L. lactis = assay: Allelic recombination frequency, selective vs non-selective plates; format: cell-based, Lactococcus lactis; conditions: RecT alone
Method: as §1
A single colony of L. lactis was grown overnight to saturation. 500 μL of dense culture was inoculated into 5 mL of fresh media, supplemented with 500 mM sucrose and 2.5% (w/v) glycine, and grown for 3 hours. To induce gene expression of the pJP005 vector for recombineering experiments, the cells were grown for an additional 30 min after adding 1 ng/mL freshly diluted nisin, unless stated otherwise. For the optimized condition (FIG. 20B), 10 ng/mL nisin was used. Cells were pelleted at 4° C. by centrifugation at 5,000×g for 5 minutes and washed twice with 2 mL of ice-cold electroporation buffer (500 mM sucrose containing 10% (w/v) glycerol) by centrifugation at 13,200×g for 2.5 minutes. Cells were resuspended in 80 μL ice-cold electroporation buffer containing DNA and transferred to a pre-chilled 0.1 cm electroporation cuvette.
as §2

PapRecT
editing efficiency in L. lactis, pair against the RecT protein alone [1]: 1170 | genome editing efficiency in L. lactis (fold less than the cognate pair) [2]: 135

MspRecT
genome editing efficiency in L. lactis (fold lower than the cognate pair) [2]: 33

B1: SEQ ID NO: 157/SEQ ID NO: 384: efficient SSAP/SSB pair co-expressed in E. coli (protein, listed as Clostridium sordellii)
chain 1: MNQIVKFTDDSGLAVQVTPDDVRRYICENATEKEVGLFLQLCQTQRLNPFVKDAYLVKYGGAPASMITSYQVFNRRACRDANYDGIKSGVVVLRDGDVVHKRGAACYKKAGEELIGGWAEVRFKDGRETAYAEVALDDYSTGKSNWAKMPGVMIEKCAKAAAWRLAFPDTFQGMYAAEEMDQAQQPEQVRAQAEQPVDLQPIRELFKPYCEHFGITPAEGMTAVCGAVGAEGMHSMTEQQARRARAWMEEEMAAPAVEAEYEVVDEGEVF
chain 2: MNHVVLVGRLTKDPELRYIPGTGTAVATFTIAIDRDYAKKDGSRETDFIPVEVMGKSAEFCANYISKGRLVALQGSIRVDNYQNQSGERRTFTKVSARNIQALDSNKNRSDSPYPSQNQSFEPSFEPSFEPTGLDPQGFQAIDDDDIPF
modifications: Collinsella stercoris DSM 13279
notes: efficient SSAP/SSB pair co-expressed in E. coli
Editing efficiency, averaged over targeted loci (E. coli [3]): ~100%

B2: PF074: SSAP candidate (protein, listed as Rhizobium loti)
chain: MMNAITTYTHSPRQLALIQKTVAKDCNTDEFNLFVEVARAKGLDPFLGQIIPMIFSKGDSNKRKMTIIISRDGQRVIAQRCGDYRPASKPPSYEFDAELKSETNPQGIVSATVYLWKQDAKTAAWFEVAGQSYWDEFAPISYPYDAYKMVDTGETWEDSGKPKKKRVLRDGATPQLDDSGNWCRMPRLMIAKCAEMQALRAGWPEQFTGLYDEAEMDRAKVLEMAASEIVAHEQEENRLRLVAGNDAITMSWGDGWALENVPAGEFMDRCLAFIRESDHQTVVKWNSANRAGLQLFWAKHPGDALELKKAIEKASRAPVEIDHIADAARREIAQHPVSAG
Editing efficiency (enrichment) relative to other SSAP candidates [4]: increase in editing efficiency

B3: N003: SSAP candidate (protein, listed as Escherichia coli)
chain: MTKQPPIAKADLQKTQGNRAPAAVKNSDVISFINQPSMKEQLAAALPRHMTAERMIRIATTEIRKVPALGNCDTMSFVSAIVQCSQLGLEPGSALGHAYLLPFGNKNEKSGKKNVQLIIGYRGMIDLARRSGQIASLSARVVREGDEFSFEFGLDEKLIHRPGENEDAPVTHVYAVARLKDGGTQFEVMTRKQIELVRSLSKAGNNGPWVTHWEEMAKKTAIRRLFKYLPVSIEIQRAVSMDEKEPLTIDPADSSVLTGEYSVIDNSEE
Editing efficiency (enrichment) relative to other SSAP candidates [4]: increase in editing efficiency

B4: PF071: SSAP candidate (protein)
chain: MALTPGLVTLNHAKIMSNESTDKLDLPQAPVPKKTLYEIVMSEDVKTHITQFVEGMMTPERCISIFWNCCQKTPLLQQCAPITLISSLKNLLLMRCEPDGIHGYLVPFWVNDKRTGNSILTCAPVPSARGLMRMARSNGVTNLNIGIVREGEPFSWRLDDGKFTMGHIPGWGDNEDPIRGFYCTWTDKDSYLHGERMSLKAVEEIKGRSKSKNKKGEIVGPWVTDFGQMGLKTVIKRASKQWDLPLVIQAAMQAADDQEFEGNMRNVTPEKTDGPAEGETPWNNAPAPEAFQNDQPEALPEPKPEGQDDLIPGLKMPAPKETATVNMEDY
modifications: Akkermansia sp KLE1798
notes: SSAP candidate
Editing efficiency (enrichment) relative to other SSAP candidates [4]: increase in editing efficiency

B5: PF076: SSAP candidate (protein)
chain: MTGPELAAAAKQTAQQAGSATVKKFFEANRGTLEALLPRHFDSERMLKLALGALRTTPKLANASLSSLLGSVVTCAQLGLEPNTPLGHAYLLPFDKREKQNGQWVTVETQVQVIIGYKGMLDLARRSGQIVSIAAHEVCQNDEFVFAYGLNEELVHRPAMKDRGPVIGFYAVAKLTGGGYSFEFMSVDEVNHIRDKAAEKNRAKRDAAGNPIITGPWADNYVEMGRKTVLRRLFKYLPISIESLAFASAVDGQAIREPAPLEQVAFESSEPAEEPTSYDQQDEDLRALEQSQPARVPPVQVEQPAEAWQPSAEEAAELERQQAAEAAADQQRASAPRGRGQRSMSLE
modifications: Methyloversatilis universalis (strain ATCC BAA-1314 / JCM 13912 /FAM5)
notes: SSAP candidate
Editing efficiency (enrichment) relative to other SSAP candidates [4]: increase in editing efficiency

B6: LrpRecT: RecT variant known to enable high genome editing efficiency in L. lactis (protein)
chain: MANQVAQQQKPTKLTDLVLDRVKQMQDTQDLSLPKNYNASNALNAAFLELQKVQDRNHRPALEVCSHDSIVKSLLDMTLQGLSPAKDQCYFIVYGNELQMQRSYFGTVAAVKRLDGVKKVRAEVVHEKDDFEIGANEDMELVVKRFVPKFENQDNQIIGAFAMIKTDEGTDFTVMTKKEIDQSWAQTRQKNNKVQQNFSQEMAKRTVLNRAAKMFINTSDDSDLLTGAINDTTSNEYDDERRDVTPVEDEKQSTDKLLEGFQKSQEAKAKWVSNDGNSNEGKETSEEVADGQTELFSEGTIKPADEADS
Improvement of oligo incorporation (E. coli [5]): 5.6 fold | Oligonucleotide incorporation (L. rhamnosus): three orders of magnitude above the background level | Improvement of oligo incorporation (L. lactis): 7,700 fold
